What was measured:
[1] = molecular target: human FcγRIIβ on CHOK1 cells (human) (UniProt P31994); assay: ratio of flow cytometry EC50s, reference FcγRIIα (R131) on CHOK1 cells
[2] = molecular target: Hu FcgRIIA_R167 (human) (UniProt P12318); assay: kinetics, antibody captured on protein A/G chip, FcγR injected as analyte
[3] = molecular target: Hu FcγRIIβ (human) (UniProt P31994); assay: as above

Sequence of UniProt P12318 (P12318 36-218 H167R limits assumed): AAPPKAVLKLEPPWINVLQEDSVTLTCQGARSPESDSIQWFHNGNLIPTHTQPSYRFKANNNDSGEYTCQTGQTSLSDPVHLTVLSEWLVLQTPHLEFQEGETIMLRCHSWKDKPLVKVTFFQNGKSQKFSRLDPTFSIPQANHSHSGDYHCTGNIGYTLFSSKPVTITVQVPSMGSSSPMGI

IgG1 P238D (antibody)
IIa/IIb (ratio of EC50) [1]: 77.8
Fold (KD(IgG WT)/KD(variants)) [2]: < 0.3 fold
Kd [2]: > 5 µM
Fold (KD(IgG WT)/KD(variants)) [3]: 3.18 fold
